Among the data in paper PMC4630614 are monomer : dimer ratio (monomer : dimer) and stoichiometry N values, retold here.

This experiment concerns the target UbcA1, ubiquitin-conjugating enzyme E2 from Agrocybe aegerita (Agrocybe aegerita). Briefly: AUC; velocity sedimentation, Beckman XL-I, 4 °C, 40 μM protein, 50 mM Tris pH 7.5, 150 mM NaCl, 60,000 rpm, c(S) of Sedfit; monomer to dimer.

Consider “UbcA1, ubiquitin-conjugating enzyme E2 from Agrocybe aegerita”, for which the monomer : dimer ratio (monomer : dimer) worked out at 32.6 and the stoichiometry N (as a rule, a count of units in the complex or per binding partner) was 2.
